Assay: label from the status in PepcDB records

MAESTIITGQFVRISQVPASLGERILARIIDYFLLFIYILATSYILGKLNIHAFSGSTFFLLFLFIYLPVLCYSLLCEVFNQGQSAGKKLMNIRVVKADGTTPSLSAYLLRWLLYGIDVTITGGLGVLVILLTKNSQRLGDLAAGTMVIKEKNYRKIQVSLDEFDYLTKGYHPSFPSAADLSLEQINVISKALELHHKDRTRHIAQLAPKVRALLSVDQTNINDEKFLQTVVRDYQYYALEEI
protein production: failed

MVEGTESATGAASAGDLVEGRHAAPKARAGKGGLARSSLLMALGTVVSRATGLIRQVLQAAALGTGLLASTYNTANTVPTSLYTLLIGGALNAVLVPQLVRARATQPDGGRAYEQRLVTLVLCVLGVGTALAVWAAPGIVALYMRDTPDSHEAFELTVVFARFLLPQIFFYGVFSILGQVLNAREKFGAMMWTPVLNNVVLIGMFGAYLSLMTVPDRVEDITGQQVRFLGVCTTAGIALQALALIPFVRAAGFRFRPRFDWRGTGLGKSVHAAKWTLLLVLANQVALTVVTNYANAVDQELPKAGAGYTAYTYAQTIWMLPQSIVTVSLVTALLPRMSRAVAEDRLPDLRADLSRVLRISGVVIVPAGFLFLALGPGIATLLFAHGAADAASAQPLGHMLQAFGLGLIPFSAQYLLLRGFYAFEDTRTPFFMAVWIAVVNIALATACHLLLPARWAVTGMAAGYTLSYLAGLLLTARLLRKRLGGRRLDDGELRRTYGKLLCASAVAAGAGWAAARATATTTPTALALAAGAVTMALVYVALARLLKVSELRLPGRG
protein production: failed

MGSAERFQRLLGDRYELRGVLGRGGMAEVRDGWDTRLARPVAIKLLYPALAADADLRARFEREARAAAALTHPHVVAVHDCGEHAGTPYIVMERLSGATLADEIAAGPLPQERVAELLDQILSALIAAHAAGIVHRDIKPGNILIGHTGQAKLADFGIAKTDGVPHTQAGQILGTMAYLSPQRVTGQPAGFADDLYAVGVVGYEALTGRRPFDRDNPAAMVRAILDDVPVPIASVRSDVAPGLIHVIDMAMAREVAFRYPDAATMRAALTGAEPPTQRVGRRQTKVLAAPLPPIPPPPVLPSPRHWRTRLILAVLGIVSTLILVLVLALARGSSGLTSPTSTPTATTVPPATSAVVPPPVPSTPVPAAVPEEPRGPGRGPGPGPGPGKGKGHEKGHGPKGPKGPPHP
protein production: failed

MPEVVFYPQNKSINVEEGTTILQAARSAGVIIESPCNGTGTCGKCKVRLDEKSLPNVLAKSRHYLSKEEEEQGYVLACETQITGDIKVELGENKQNGTLKILSRGHSFNIDLKPFIRKEYFVHEDVTKVFAGKEQLGIEAGDTTKENYGAVVDIGTTTLVASIVNLNNGDEIGTSSALNPQAVHAQDVLSRIKFSSDADGLKVMHSELTDKINSMIGKIALRAGISKEHIYEIVFSGNTCMLHLASNTCPESLGKYPYTPKISGAAYLDAAKYNIDISPFGIIYLPPIISAYVGADIVSGILASQLHEKDGVILFVDIGTNGEMVLASCGNLSATSTAAGPAFEGMNITCGMRAGEAAIEFFEIEEQGSINIKVIGETEAAGICGSGLLDMVGEFAAHGVIKKNGQFIDPESENVLHPKLAERLVRQDGKWIFKVTDKVFLSQKDIRQVQLAKGAVRAGIEFLLENKGVRASDVDKVLIAGSFGYHLREKSLINIGLLPKEFEGKVEFVGNTSLSGAKAFLLNQTYREKMKETVKSVEVLELANYKDFDRVFVRCLSFLEHHHHHH
protein production: failed

MNSEVDTLFAQAYKLQYEGHLPQAISLYEQILAQSPKHTETLHFLGLTYAQLGDMENAILYFLQARKINPNDVGILNNLANAYKKAGQLDEAIKYYQQAIEIKPEYVQAHNNLAATYALLNNYQKALHHYVIAVNTEPDFSAAHFNLGLLLLKNQQLSAAKTQFNNVIALNPQHREAQFYLGILHLEDNLLSEAEQAFHKVLEQDHEHVQSLINLGVIALKREQNQLAVDYFTKALALDNEDIDARNNLAATFMHHDRFENALMHYDVLLKKEPDNLEYLYNSGVAQMALGHLNEATLLFDQILTLQSDHTPSLNNLAAIYLKMDMRETAREYLERALAINPDDVISRHMLNAITGATSVNTTEKYAQNLFNNYALYYDQHMQGELHYKIPHHIGRLIHQLQLLQTSHSLDLGCGTGLTGIVLREISKHLTGVDIAEKMIARAKEKNIYDLLVCSELIDFLRKDKNDYDLAVAADVLPYFGNLDDIFNSINQHLKQEGYFIFTTEISTTTPWKLESSARFSHQPEYIESLINKYQFHLIKQEKIPGRTQNKQVLEVMLYCIQKSTSCFVSN
protein production: failed

MECRPLCIDDLELVCRHREAMFREAGRDALTLAAMQDPFRDWLLPRLADGSYFGWVMEEGGAPLAGIGLMVIEWPPHPSHPLQDKRGYILNLYVDPSHRERGIGQALMNRAEAEFAERGIAFAVLHATEMGQPLYARMGWSPTTEMSKPIAG
protein production: not failed

MVRLIFSDIDGTLINSNFKVTPKTRQGIKQIVAQGATFVPISARMPEAITPIMEQIGIDSYIISYNGALIQDMQQKTIASHTMDGQVALQVCSYVSKHYSKIAWNVYRYHEWYSCDKENEWVQKEEEIVGLQSKEMSLMELEKQDRIHKLLLMGEPSLMGELENTLKAQYPHLSIAQSAPYFIEIMAPGIEKGKSAKTLADYLDISLADSIAFGDNYNDLNLLEIVGKGFVMGNAPKDLQERIGNVTQDNDNDGIYYALVEYMEN
protein production: failed

MIERGRLGAASRRRATSAHGPIQTTVFMSSGIVFHAVAALAYAVLAGSLWRRLQGRGSVDQASKLTRTGLLGALALHGVALQQAMLGTQHLYIGWALALSAAVWLGLVVFWLESLLIRIDGLQLLLLPAAAIVTAIAALFPQAQLVPHANNPWLRAHLLIALAAYGLITIAALHAMLIALLDRHLHRPLDAPAERSIVGRVLDAQPPLLVQERLLFRVIWIGFVVLTLAVGSGSVASITLTGKFLPFDHKTIFTLLSWATFGVLLLGRHIRGWRGRVALRWTLTGFAFLILAYTGSRFVLEVILHRG
protein production: failed

MENSTLYIVIAGLWLAVGFGIFLKKLDMPVIIGYICTGTVLAAFFKINDFDLLSDIGEFGIVFLMFMIGIEFNFDKLKSIKQEVLVFGLLQVVLCALIAFLLGYFVLGLSPIFSLVLGMGLSLSSTAIVLKFFEDSKQLSTPMGKSAVGILIFQDIAAIPMLLILTILGSKDSNVNLLILKTFISAGIILVLLLLPGKKGANLILEQAKDTRLPEIFIGTILVIVCSAAGLSHFFGFSMSLGAFIVGMAISKSRYKINVQEEFAQLKNLFLALFFITIGMQINVSFFMEKFFVVIFLLILVMGFKTAIIYALLRFFRDAKTAIKTALSLAQIGEFSFVIFLNSGSHQLFNLQEKKGILGFLHQKNILNIAQNDIHQLLILMVVFSMLATPFILKYLESIAQFILHQKSQENEPAKK
protein production: failed

MQLSHRPAETGDLETVAGFPQDRDELFYCYPKAIWPFSVAQLAAAIAERRGSTVAVHDGQVLGFANFYQWQHGDFCALGNMMVAPAARGLGVARYLIGVMENLAREQYKARLMKISCFNANAAGLLLYTQLGYQPRAIAERHDPDGRRVALIQMDKPLEP
protein production: not failed

MEQNSYVIIDETGIHARPATMLVQTASKFDSDIQLEYNGKKVNLKSIMGVMSLGVGKDAEITIYADGSDESDAIQAISDVLSKEGLTK
protein production: not failed

DLREVLDFMLKDEVSKLRKLLVKIKTKKIAEVEYENVVKALKLFKDNYEINEYLMDENTKEFLIKRNILFLNPVEEILKPQSYLVWNAIKRVLQNINDF
protein production: not failed

MKKLFFIFLGSCTFALGTLGIFLPLLPTTGFYLLTAFFWMRSSDKLYNKFLASSYYQKYIQEAFFEKKITRKGKWKLFISMFLLFAIPCLIVRNTLMTTTLAIVYLAHVIGLSWYWRPKKKALELDQE
protein production: failed

MRRFLAGLWLLGLALGQGLVLPFEGPKGYGLAQAFAQGLKAPPPTLLALLLPDLPWRGSYELAGGLYTKAGARLARAATGADWVLLGREEEGGLRLILAREGGSEERLFKTPELAWLWLQGKGLAPRLSPLPTPGLPEERLRALAQGEAPDPLHRSALDLKEGRGSGLLEGLLPERLLLLWQGKLPRAYEAFRLLAEGKREEALALAEAMEEGDVLERTAAHLLFRALEDERWKASARRLAEAFPELSLAWEEVSFAAFQEGKGEEAKEALLKALALRPDYWLYWTNLGWAYYLTGDLPRAIQASERAVALSPNATAYYNLGLFKAIYGDFLGAKAAYDRALRLDQGEDYPEALKDLEEREEPLALFFRAYLAERTGLEAEPLYRAFLEAYPRHPAAFAARRALATLKAGGLSLEVERLTLVPGGPDARPFRAGEAIFPEVRLEGRPYLRQASLFTALYREGRKVAEEEKPVGFPPLTVALLEVAPPVVPEAPGRYRLEVRYAEARAVLDLEVGAPSLARRLFALGLEVRDLSGRPLLTPKEALGEDGERLLLERAREALMEAAPLATTERLTQPLEKGPVAGRSVQEVLRDPDPEILRAFFQAVLENPERLAETDVVNAFVNWLLEP
protein production: failed

MQAAAARIVTIAVCPGPAAAMQDAILQALRRDAADDAVALAREWVTNAPDHAAAHRWLALALQQQGQPALALDSIDTALTLTPEDADLHLLRAGALLATRDLSAADAALSRTTALDPNQFNAYVMQAHLAVARGDLDEAERLSRTAARLAPEHPQLLAVDGVVEMRRGQDDRALSLLTRAAEQLPDDARVLFSLGFAYLQKEHFAFAERAFERVIELNPPGTALRAFIAQLAQRQGRLDDALAAMQGVLDQPDGDLPAMRRLAGEMELQAGRPDQAAAHLRLALAHWPADRRTLHALLTAWERLGAVDDARDTLDAALATSATAHDLWLARLAVEPVGGPQAQAVIERWLLAMPEHLPALEALMRVHDMQGQADEAEMVARQIVAVEPGRISGEQRIVEALLQRDPPAAIACVESLIESLPAPQQTVLRPWLGNVQDRAGQPDAAVGTWMQFHREQAQHRLPLPPQAARQPTQWPALGSIPDTVTARPLFVWGTPGSHVERLVAVMGAATPLVRGDRYGITPPSDALQSYRTLEQLASGELAPTALVEGWKAQLPRRGIDDGNVIDWLLWWDNTLLTALRPHLPEGRLAIALRDPRDMLLDWLSAGASAPLALQSPQQATDWLLIALEQLATLHERDLYPHRIIRLDGIEDDPQGISTALEQAFGLSFPLVEPRGPARLASGRWRDYRGVLGAQFDLLTLIAVRFGYPQD
protein production: failed

MKKITKMVISSVLATVLMTACSQSSQNGQSDVKHIGILQYVEHPSLTATRKGFIKELAKEGYKDGKNIKIEYKNAQGDQSNIQSISEKLIKDNKLVLGIATPAAQSLTTVSTETPILFTAVTDPVSAELVKSMKKPEGLATGTSDMSPIKKQVSLLRKVMPKVKRVGIMYTTSERNSEVQVKQAKKIFQEAGIKTSVKGISSTNDVQDTAKSLMSKTEVIFVPTDNIIASSVTLLGNLSKELKVPVVGGSADMVPSGLLFSYGADYEALGRQTARQAVKILKGKDVAKVPSEYPQNLKVVVNEDMAKELGIDVSSIKNNK
protein production: failed

MSMPILLLVAVILAIYAVAYLFYGRNILQEKVVRASPERETPAIAKFDGVDYVPAHRFVLFGHHFASIAGAGPIVGPAIAMAYGWLLPLVWVLFGNVFMGAVHDYLSLMASVRYGGISIVSVGENLMGRKARYLFLIYVLFTLILVYAAFASIAASLFARDPRVATLSILFMPLALLLGIMMYRMGLGMGPSTVITVVLVIAAFVYSYNHGIVIGTFDPSLPPGEGGWVAYHRWVIILGLYALLAASLPVWYLLQPRDYLNAYILWTGLGLAAIAAILLGTQSLKGPAYTSFQPNIIAGQPTPFWPAIPLIIACGSLSGFHSLVASGTTSKQLASELDALFVGYGAMLLEGALSGLAVIIPISFAWNAPELIQKGVIENNMLDLAAVPRYAVGYGYTLAKTFEMFGVGFDTGYSFFTLFASLMLSMYVLTTLDTGTRLARFAWQELFDWLANVDKNLYSIVTNKWVSSLAVVIIGSALAYPVLEIGAGYKAAYNVVWPAFAGANQMLAAIALLTSALWVYGVLNVRGGTGLLILLPSLFLWVTVTAGLTWWLMVILPVLPAIQQFGAGSMILFTLLLSLLLFALFIINFNKLSKQAGASQQAQA
protein production: failed

YMVPGLWGAPLKAVSAFAPPMKTQDFNLYTNEVHAKFDDYDLGMEYARQHNKPVMLDFTGYGCVNCRKMELAVWTDPKVSSIINNDYVLITLYVDNKTPLTEPVKIMENGTERTLRTVGDKWSYLQRVKFGANAQPFYVLIDNEGNPLNKSYAYDEDISKYINFLQTGLENYRKEK
protein production: failed
